# Experimental data from article PMC6884138 (ACS synthetic biology, 2019).
# Columns and labels:
# [1] = biological target: the molecule itself; assay: SEC
# [2] = biological target: the molecule itself; assay: crystal structure
protein,measurement,setting,value
"BMC-H^2 (synthetic tandem-domain BMC shell protein), released from 6xHis-SUMO-BMC-H^2 by ULP protease (other, Haliangium ochraceum) MADALGMIEVRGFVGMVEAADAMVKAAKVELIGYEKTGGGYVTAVVRGDVAAVKAATEAGQRAAERVGEVVAVHVIPRPHVNVDAALPLGRTPGMDKSALDAPVVADAWEEDTESADALGMIEVRGFVGMVEAADAMVKAAKVELIGYEKTGGGYVTAVVRGDVAAVKAATEAGQRAAERVGEVVAVHVIPRPHVNVDAALPLGRTPGMDKSA",stoichiometry N,[1],3
same,stoichiometry N,[2],90
